The data set in a line: protein stability index of a GFP-peptide fusion (GPS, HEK-293T) (PSI 1-6); higher = more stable.
[1] abbreviates: treatment: DMSO, c terminus: a fixed tail appended.
The mark [2] stands for this setting: treatment: MLN4924 1 uM, 8 h, c terminus: a fixed tail appended.

± gives the standard deviation.
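Also: 24-mer peptide tiles fused after GFP, lentivirally expressed, FACS-sorted into six equal bins by GFP/DsRed ratio, decoded by Illumina sequencing, PSI is the read-weighted mean bin number.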

As to NERDSSEPGNFIPLFTPQSPVTAT [CDC25A], the protein stability index runs as follows: under setting [1], 4.65 ± 0.48; under setting [2], 4.65 ± 0.33.

NFCHIHNCIHRDIKPENILITKQG [CDKL4]: the protein stability index runs as follows: under setting [1], 2.53 ± 0.067; under setting [2], 2.74 ± 0.43.

NGCRSGEIFAIDLRCGNQGKGWKA [DCAF4]: the protein stability index runs as follows: under setting [1], 2.31 ± 0.35; under setting [2], 2.2 ± 0.29.

The sequence NGTKADGKDAKTTNGHGGEAAEGK [TRIM29] returned a protein stability index under setting [1] of 5.48 ± 0.2 and a protein stability index under setting [2] of 5.55 ± 0.12.

For NIMGIENICELAARMLFSAVEWAR [NR2F2], the protein stability index by setting is: under setting [1], 3.04 ± 0.18; under setting [2], 2.79 ± 0.25.

As for NKKRGWRRLAQEPLGLEVDQFLED [NOP53], the protein stability index stood at 4.45 ± 0.35 under setting [1] and 4.34 ± 0.18 under setting [2].

NLDTEELCEYFSQHLGEYENVLAA [NECAB1]: the protein stability index reads like this: under setting [1], 2.83 ± 0.32; under setting [2], 3.3 ± 0.66.

For NLKNDGRQVEKRRNSGPVVEKLKQ [MMP1], the protein stability index by setting is: under setting [1], 4.58 ± 0.24; under setting [2], 4.41 ± 0.49.

For the sequence NLRLQRKLQREMERREALCRQLSE [CCDC6], the protein stability index runs as follows: under setting [1], 3.52 ± 0.27; under setting [2], 3.63 ± 0.43.

As for NMTQDEFKSLFGSIGDIESCKLVR [ELAVL3], the protein stability index runs as follows: under setting [1], 3.28 ± 0.15; under setting [2], 3.33 ± 0.46.

With NQWETPPEDLQTDLAKLVDQQNPT [ZNF449], the protein stability index under setting [1] was 5.36 ± 0.21 and the protein stability index under setting [2] came out at 5.29 ± 0.26.

Consider NRFRVEISFHFEVTNHNIRLFEDV [TRIM43], for which the protein stability index is, setting by setting: under setting [1], 2.73 ± 0.5; under setting [2], 2.84 ± 0.22.

In the case of NRRMVGPDVIPLPHIYGARIKGVE [FAM189A2], the protein stability index by setting is: under setting [1], 3.19 ± 0.11; under setting [2], 3.15 ± 0.27.

For NSQNEVNGWTCLHWACKRNHGQVV [ANKRD40], the protein stability index was determined as 2.57 ± 0.24 under setting [1] and 2.65 ± 0.24 under setting [2].

The sequence NTCSVITTLKGHEGSVACLWWDPI [WDFY1] came in with a protein stability index under setting [1] of 2.09 ± 0.39 and a protein stability index under setting [2] of 2.34 ± 0.46.

With NTEERQKRQVTHFQFLSWPDYGVP [PTPN9], the protein stability index amounted to 3.17 ± 0.57 under setting [1] and 3.042 ± 0.028 under setting [2].

On to NTNVLSRDLIPPHVNFSHLTTKDY [SLC6A17], for which the protein stability index is 3.49 ± 0.37 under setting [1] and 3.87 ± 0.12 under setting [2].

In turn, NVNVTLLSKQAKFAYKDEYEKFKL [TMEM120A] yielded a protein stability index under setting [1] of 2.9 ± 0.15 and a protein stability index under setting [2] of 2.82 ± 0.23.

Regarding NVPVDDSLVKELLRMCSHGEGKIN [EFHC1], the protein stability index was 3.39 ± 0.2 under setting [1] and 3.55 ± 0.11 under setting [2].

Take NYGGVIKNYFQHREFSFTLKDDIY [PRIM1]: the protein stability index came out at 2.13 ± 0.2 under setting [1] and 2.25 ± 0.08 under setting [2].

Take NYYRTWNVVVHDWLYYYAYKDFLW [SOAT1]: the protein stability index amounted to 3.73 ± 0.5 under setting [1] and 2.94 ± 0.34 under setting [2].

In the case of PADSFESPLTLAACGGHVELAALL [ANKRD17], the protein stability index runs as follows: under setting [1], 2.87 ± 0.32; under setting [2], 3.14 ± 0.28.

PEEVKSLDSNGAGEKSENNSSNSD [BCL2L13]: the protein stability index came to 5.84 ± 0.15 under setting [1] and 5.6 ± 0.23 under setting [2].

For PENLLLASKSKGAAVKLADFGLAI [CAMK2D], the protein stability index under setting [1] turned out to be 2.53 ± 0.38 and the protein stability index under setting [2] worked out at 2.13 ± 0.18.

As for PEPPAAVDFLEPDSGTCPEVDEEG [FCHO1], the protein stability index by setting is: under setting [1], 5.48 ± 0.26; under setting [2], 5.54 ± 0.21.

Consider PFGESNGNGVHVCNVKYKRWALLS [KLHDC10], for which the protein stability index by setting is: under setting [1], 2.08 ± 0.22; under setting [2], 2.26 ± 0.33.

PGARGLWKPPDIKGKLMVCYETLP [SPAG8]: the protein stability index is, setting by setting: under setting [1], 2.56 ± 0.26; under setting [2], 2.51 ± 0.16.

Regarding PGASTEEVKRAFFSKSKELHPDRD [DNAJC4], the protein stability index stood at 5.12 ± 0.28 under setting [1] and 5.18 ± 0.079 under setting [2].

PGGGDICMYRHALPPGFVLKKDKK [ZC3H15]: the protein stability index reads like this: under setting [1], 4.29 ± 0.2; under setting [2], 4.04 ± 0.1.

PGNLEKNRYGDVPCLDQTRVKLTK [PTPN9] returned a protein stability index under setting [2] of 4.32 ± 0.72.

For the sequence PHIYGARIKGVEVFCPLDPPPPYE [FAM189A2], the protein stability index is, setting by setting: under setting [1], 2.96 ± 0.17; under setting [2], 3.04 ± 0.19.

In the case of PIDPAAWVSHTAAMTGTFPAYGMS [DVL3], the protein stability index came out at 2.73 ± 0.36 under setting [1] and 2.75 ± 0.18 under setting [2].

As for PIFMRKDTKMSFQWRIRNLPYPKD [DPCD], the protein stability index by setting is: under setting [1], 2.27 ± 0.27; under setting [2], 2.22 ± 0.069.

As to PKAQLSGYAVEATRNQSQLQRFL [FBF1], the protein stability index by setting is: (treatment: DMSO, c terminus: native) 4.13 ± 0.19; (treatment: MLN4924 1 uM, 8 h, c terminus: native) 4.21 ± 0.38.

As to PKDIMTNTHAKSILNSMNSLRKSN [KLHL12], the protein stability index came to 3.48 ± 0.099 under setting [1] and 3.73 ± 0.34 under setting [2].

With PKKEANQAPKSKSGSRPRKPPPRK [LRRC59], the protein stability index by setting is: under setting [1], 4.92 ± 0.21; under setting [2], 5 ± 0.18.

PKPDRLLVLKVLWNDFLMCYSSRP [SLC19A2]: the protein stability index is, setting by setting: under setting [1], 2.89 ± 0.2; under setting [2], 3.08 ± 0.46.

For the sequence PLVALDTDSDDDFDMSRYSSSGYS [FAM219A], the protein stability index is 4.59 ± 0.52 under setting [1] and 4.76 ± 0.38 under setting [2].

Turning to PLVTPPQSPVSPQPPAITQVHRQG [SMTNL2], the protein stability index reads like this: under setting [1], 4.56 ± 0.35; under setting [2], 4.58 ± 0.053.

In turn, PMVNHAEASRLNIERMKQIYQQLS [CRY1] yielded a protein stability index under setting [1] of 2.81 ± 0.34 and a protein stability index under setting [2] of 2.77 ± 0.25.

With PNFNFNISHQGDYAVLAAEPELQV [AASDHPPT], the protein stability index came to 4 ± 0.09 under setting [1] and 3.93 ± 0.39 under setting [2].

As for PNGLEAAYEFADRDEVRFFKGNKY [MMP1], the protein stability index runs as follows: under setting [1], 3.74 ± 0.44; under setting [2], 3.83 ± 0.3.

Consider PPHYFFTYRIRIEMSKDALPEKAC [FBXO3], for which the protein stability index runs as follows: under setting [1], 2.47 ± 0.48; under setting [2], 2.17 ± 0.23.

Sequence PPVSQSRSLFSSVPSKPPMSLEPQ [ANKRD40] registered a protein stability index under setting [1] of 4.53 ± 0.11 and a protein stability index under setting [2] of 4.68 ± 0.4.

Turning to PQAPAPATATDTFEAAPPAPAPAP [CEBPB], the protein stability index is 5.28 ± 0.51 under setting [1] and 5.38 ± 0.35 under setting [2].

Turning to PQEAAGAQGRAGAPVPEPPKEEQQ [EPB41L3], the protein stability index is, setting by setting: under setting [1], 5.2 ± 0.45; under setting [2], 5.75 ± 0.26.

As to PQGSGFCLGQLNLEQRSESVRRTR [SMAD6], the protein stability index by setting is: under setting [1], 4.39 ± 0.26; under setting [2], 4.67 ± 0.43.

For PQPHRNRAGLDLPTIDTGYDSQPQ [TRAF3IP2], the protein stability index runs as follows: under setting [1], 4.58 ± 0.2; under setting [2], 4.76 ± 0.19.

Take PQYRSYFMECLVDARMLDHLTKKD [PPFIA4]: the protein stability index amounted to 2.7 ± 0.2 under setting [1] and 2.58 ± 0.17 under setting [2].

Take PRARRRLGSGPDRELRKPEEPENG [PWWP2B]: the protein stability index runs as follows: under setting [1], 5.43 ± 0.14; under setting [2], 5.42 ± 0.2.

For PREALSRLQELCHGWLRPEMRTKE [ZNF263], the protein stability index runs as follows: under setting [1], 3.31 ± 0.23; under setting [2], 3.55 ± 0.28.

Turning to PRFHMACPTFRVSIARLEMGPDEY [FBXO3], the protein stability index runs as follows: under setting [1], 2.82 ± 0.21; under setting [2], 2.72 ± 0.24.

As for PRGRRISVICRSLPEGMGPGESGQ [ALKBH7], the protein stability index reads like this: under setting [1], 3.69 ± 0.11; under setting [2], 3.95 ± 0.37.

Take PRIIKAAPSCAIMISTYEFGKSFF [SLC25A39]: the protein stability index under setting [1] came out at 2.56 ± 0.49 and the protein stability index under setting [2] stood at 2.28 ± 0.32.

As for PRSGEQAEGSPGGPGDSQGRKRRQ [CDKN1A], the protein stability index by setting is: under setting [1], 5.56 ± 0.16; under setting [2], 5.48 ± 0.27.

Consider PSHGSLSHSKAPSGSQMSHNAVTS [NCF4], for which the protein stability index stood at 4.55 ± 0.1 under setting [1] and 4.83 ± 0.37 under setting [2].

With PSHHPTDPVELRRLNFQTPGMASH [PTPRD], the protein stability index is, setting by setting: under setting [1], 3.79 ± 0.13; under setting [2], 3.94 ± 0.34.

In turn, PSHLLLPPDTVSRTGLEKAAAGAV [SPDEF] gave a protein stability index under setting [1] of 4.22 ± 0.33 and a protein stability index under setting [2] of 4.26 ± 0.35.

Consider PSLEDLFDLCDRTFSLKTVLMIAI [CSNK1G3], for which the protein stability index is, setting by setting: under setting [1], 2.5 ± 0.42; under setting [2], 2.38 ± 0.43.

For the sequence PSRYAAIYNGGVEAVSTLLGAVAV [SLC19A2], the protein stability index runs as follows: under setting [1], 2.28 ± 0.15; under setting [2], 2.06 ± 0.37.

In the case of PTEGQGSLLTNWPSVPPTIKEEEN [MYBL2], the protein stability index was 5.46 ± 0.23 under setting [1] and 5.42 ± 0.18 under setting [2].

With PTGDVLLDEALKHVKETQPPETVQ [GOLPH3], the protein stability index worked out at 5.32 ± 0.1 under setting [1] and 5.21 ± 0.1 under setting [2].

As to PWAVDPAFAERYAPDKTSTVLTRH [PDLIM7], the protein stability index came to 3.57 ± 0.24 under setting [1] and 3.56 ± 0.25 under setting [2].

Take PYHVDSLLQLSDACRFQEDQEMAR [TCF25]: the protein stability index stood at 4.36 ± 0.17 under setting [1] and 4.04 ± 0.21 under setting [2].

With PYKKPYMETSPSEEDSFYRSSYPQ [TBX5], the protein stability index runs as follows: under setting [1], 3.91 ± 0.47; under setting [2], 3.65 ± 0.41.

Turning to QADLELDYNPPRVQLSDEMFVFQD [CBY2], the protein stability index is 4.65 ± 0.28 under setting [1] and 4.83 ± 0.21 under setting [2].

Regarding QADLLAHLVPEPDRLEEQLPWLSL [DNAAF3], the protein stability index reads like this: under setting [1], 2.34 ± 0.25; under setting [2], 2.48 ± 0.28.

Turning to QARLLNPSATRAKPGPQDTVERPF [NOP53], the protein stability index by setting is: under setting [1], 4.78 ± 0.24; under setting [2], 4.85 ± 0.14.

Take QCPEPPIVVHCSAGIGRTGTFCSL [PTPN9]: the protein stability index was determined as 2.17 ± 0.26 under setting [1] and 2.14 ± 0.12 under setting [2].

Take QDKSESLSDNATAFSNRSKQLRRQ [VAMP4]: the protein stability index was determined as 5.36 ± 0.4 under setting [1] and 5.17 ± 0.21 under setting [2].

With QEELTRINQSFTGAERKAALCELL [IQUB], the protein stability index came to 3.41 ± 0.28 under setting [1] and 3.63 ± 0.17 under setting [2].

Turning to QEKKILELEKLAEKNIILEEKIQV [MTUS2], the protein stability index by setting is: under setting [1], 4.3 ± 0.28; under setting [2], 4.29 ± 0.17.
